Source: patent US20080279865A1, “Therapy of Prostate Cancer With Ctla-4 Antibodies and Hormonal Therapy” (Pfizer, Inc., Pfizer Products, Inc., priority 2005, published 2008)

How the values were obtained:
[1] = Single agent studies of ticilimumab in melanoma (diarrhea); type: in vivo, human
Source text: In contrast, in the present study, 2 out of 3 patients treated with the combination of hormonal therapy and CTLA4 blockade had grade 3 diarrhea. […] Diarrhea is considered to be pharmacologically mediated in that it is likely related to the mechanism of action of ticilimumab. […] A possible correlation between tumor response in melanoma and putative “autoimmune breakthrough events” has been reported for single agent CTLA4 blockade in the absence of any other therapy (see Attia et al., J Clin Oncol. 23(25):6043-6053 (2005)).

[2] = system: prostate cancer; assay: Neoadjuvant ticilimumab plus leuprolide and bicalutamide before prostatectomy in high risk prostate cancer; type: in vivo, human
Source text: Patients with prostate cancer who are eligible for radical prostatectomy and who have an intermediate or high risk of recurrence according to current medical standards are candidates for antibody-hormonal combination neoadjuvant therapy. The target population for this study is defined using the risk of biochemical recurrence instead of the probability of pathologically confined cancer. This approach is supported by the observation that patients with disease confined to the prostate may have a biochemical recurrence despite “definitive” local treatment. Therefore, this patient definition is more comprehensive. Considering recent data showing that a time to PSA failure of less than 2 years predicts for distant failure, patients who are at high risk for early PSA failure are candidates for neoadjuvant (and adjuvant) antibody-hormonal combination therapy as disclosed herein.
Pre-operatively, approximately after the end of the last cycle of antibody-hormone combination therapy and prior to scheduled prostatectomy, the following evaluations are completed: any adverse events, ECOG PS, vital signs and weight, physical examination (including signs of autoimmunity), ECG, and DRE. Samples for hematology and chemistry panels, along with PT, APTT, CRP and PSA are obtained.
Post-operative assessments are performed approximately two weeks following surgery. The evaluation includes physical examination (including autoimmunity), vital signs, ECOG performance status, body weight, hematology, and chemistry panels, PT, APTT, TSH, T3, T4, amylase, lipase, CRP, urinalysis. Additional samples are obtained for autoantibody panel, PSA, testosterone, HAH titer and PK. All patients are assessed for pathological assessment of the surgical specimen and adverse events.
The patient is premedicated with antihistamine (H1) at least one half hour prior to infusion of anti-CTLA4, but premedication is not required. Patients were administered leuprolide (LUPRON) and bicalutamide (CASODEX) in combination with an anti-CTLA4 antibody (ticilimumab). More specifically, on day 1 (D1), the patient was administered a single IV infusion (100 mL/hr) of anti-CTLA4 antibody at a dose of 1 mg/kg, 3 mg/kg, or 6 mg/kg, in combination with a 7.5 mg IM injection of leuprolide (LUPRON DEPOT). A minimum of 3 patients were administered each antibody dose. The study was amended to reinitiate dose escalation at a lower dose level, i.e., 1 mg/kg. Three patients received that dose level, and are undergoing surgery (after 3 months of combination therapy). Dose escalation continued to 3 mg/kg. Dose escalation is ongoing at 6 mg/kg and 10 mg/kg.
Bicalutamide (CASODEX) was administered orally, in tablet form, at a dose of 50 mg, once per day for the first fourteen days commencing on day 1 (D1). Preferably, bicalutamide was taken at the same time each day on days D1-D14, and a patient medication diary was used to record any interruption of bicalutamide dosing.
Prophylactic anti-emetics and anti-diarrheals were given as appropriate. The treatment was repeated after 28 days with a […] of antibody and 7.5 mg IM injection of LUPRON DEPOT for a maximum of three cycles (D1, D28, and D56) preceding surgery.

ticilimumab: human IgG2 anti-CTLA4 antibody; heavy chain SEQ ID NO:26, light chain SEQ ID NO:32
patients with diarrhea ([1]; multiple doses of 6 mg/kg): none | patients with diarrhea grade 3 ([1]; single dose of 6 mg/kg): 1 out of three | diarrhea in a patient ([2]; 3 mg/kg ticilimumab and hormonal therapy): prolonged diarrhea | prostatectomy specimen findings ([2]; 6 mg/kg, patient 1005-1004, after three months of antibody therapy and hormonal therapy (leuprolide and bicalutamide), FIG. 4): detectable tumor regression and signs of an inflammatory infiltrate around tumor cells | patients who experienced diarrhea and did not complete the study ([2]; cohort of three patients at 6 mg/kg with hormonal therapy): two | severity (duration and magnitude) of the diarrhea versus any other study at any dose level ([2]; combination of hormonal therapy and CTLA4 blockade): significantly higher | patients with grade 3 diarrhea ([2]; combination of hormonal therapy and CTLA4 blockade, cohort of three patients at 6 mg/kg): 2 out of 3 | treatment effect in prostatectomy specimens ([2]; several patients treated with 1 mg/kg and 6 mg/kg, with androgen blockade): regression of carcinoma and benign prostate glandular tissue, lymphocytic infiltrates (see FIG. 4), and signs of acute and chronic inflammation
